Measurements published in patent publication US20170304457A1 (MIT, published 2017).

What was measured:
Assay in all cases: cell-based or functional assay
[1] = target: P-cNsp1-P
[2] = target: P-2NLP-P
[3] = target: P-1NLP-P
Sequence of P-1NLP-P (chain, as listed by the source): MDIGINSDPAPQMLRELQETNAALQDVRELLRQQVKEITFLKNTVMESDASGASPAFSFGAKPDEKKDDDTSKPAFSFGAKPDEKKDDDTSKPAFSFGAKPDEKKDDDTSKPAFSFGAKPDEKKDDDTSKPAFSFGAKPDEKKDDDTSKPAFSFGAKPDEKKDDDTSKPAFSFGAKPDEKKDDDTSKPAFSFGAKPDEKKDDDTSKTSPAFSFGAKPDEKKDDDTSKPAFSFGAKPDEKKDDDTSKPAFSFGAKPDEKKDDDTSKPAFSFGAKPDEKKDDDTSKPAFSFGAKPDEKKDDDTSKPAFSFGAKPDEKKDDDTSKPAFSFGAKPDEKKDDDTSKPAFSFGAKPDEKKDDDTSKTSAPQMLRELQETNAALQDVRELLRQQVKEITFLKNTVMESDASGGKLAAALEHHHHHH

Sequence of P-2NLP-P (chain, as listed by the source): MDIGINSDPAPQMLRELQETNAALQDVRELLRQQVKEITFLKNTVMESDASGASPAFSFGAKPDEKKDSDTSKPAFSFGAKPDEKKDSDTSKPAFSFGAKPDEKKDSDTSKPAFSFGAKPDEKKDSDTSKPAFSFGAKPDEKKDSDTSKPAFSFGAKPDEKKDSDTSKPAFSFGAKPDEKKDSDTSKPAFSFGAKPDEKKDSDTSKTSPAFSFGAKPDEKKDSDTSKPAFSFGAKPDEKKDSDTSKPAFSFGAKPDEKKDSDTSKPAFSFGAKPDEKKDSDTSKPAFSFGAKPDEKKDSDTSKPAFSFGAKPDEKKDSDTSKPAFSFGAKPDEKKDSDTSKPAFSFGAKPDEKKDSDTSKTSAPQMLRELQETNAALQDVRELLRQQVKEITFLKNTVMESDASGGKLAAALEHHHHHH
Sequence of P-cNsp1-P (chain, as listed by the source): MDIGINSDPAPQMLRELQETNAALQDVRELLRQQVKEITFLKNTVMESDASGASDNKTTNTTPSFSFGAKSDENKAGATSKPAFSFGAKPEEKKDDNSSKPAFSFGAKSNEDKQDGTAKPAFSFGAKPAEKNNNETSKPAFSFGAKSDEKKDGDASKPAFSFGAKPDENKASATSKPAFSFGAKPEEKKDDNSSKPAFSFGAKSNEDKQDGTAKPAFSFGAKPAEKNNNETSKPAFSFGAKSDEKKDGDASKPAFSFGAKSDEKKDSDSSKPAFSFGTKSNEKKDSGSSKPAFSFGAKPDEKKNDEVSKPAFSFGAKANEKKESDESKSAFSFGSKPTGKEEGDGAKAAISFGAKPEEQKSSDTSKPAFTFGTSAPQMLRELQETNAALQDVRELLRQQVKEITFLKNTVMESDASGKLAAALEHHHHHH

B1: importin β (receptor, UniProt Q06142 1-861, looked up, not shown: small tags and cut ends)
chain: MSTAEFAQLLENSILSPDQNIRLTSETQLKKLSNDNFLQFAGLSSQVLIDENTKLEGRILAALTLKNELVSKDSVKTQQFAQRWITQVSPEAKNQIKTNALTALVSIEPRIANAAAQLIAAIADIELPHGAWPELMKIMVDNTGAEQPENVKRASLLALGYMCESADPQSQALVSSSNNILIAIVQGAQSTETSKAVRLAALNALADSLIFIKNNMEREGERNYLMQVVCEATQAEDIEVQAAAFGCLCKIMSLYYTFMKPYMEQALYALTIATMKSPNDKVASMTVEFWSTICEEEIDIAYELAQFPQSPLQSYNFALSSIKDVVPNLLNLLTRQNEDPEDDDWNVSMSAGACLQLFAQNCGNHILEPVLEFVEQNITADNWRNREAAVMAFGSIMDGPDKVQRTYYVHQALPSILNLMNDQSLQVKETTAWCIGRIADSVAESIDPQQHLPGVVQACLIGLQDHPKVATNCSWTIINLVEQLAEATPSPIYNFYPALVDGLIGAANRIDNEFNARASAFSALTTMVEYATDTVAETSASISTFVMDKLGQTMSVDENQLTLEDAQSLQELQSNILTVLAAVIRKSPSSVEPVADMLMGLFFRLLEKKDSAFIEDDVFYAISALAASLGKGFEKYLETFSPYLLKALNQVDSPVSITAVGFIADISNSLEEDFRRYSDAMMNVLAQMISNPNARRELKPAVLSVFGDIASNIGADFIPYLNDIMALCVAAQNTKPENGTLEALDYQIKVLEAVLDAYVGIVAGLHDKPEALFPYVGTIFQFIAQVAEDPQLYSEDATSRAAVGLIGDIAAMFPDGSIKQFYGQDWVIDYIKRTRSGQLFSQATKDTARWAREQQKRQLSL
B1 was tested, and the “absorption of cargo-importin β complexes by the hydrogel relative to inert molecules in an hour (capillary transport assay, 20 w/v % gel)” value [1] was 3.9 times more than inert molecules, the “absorption of cargo-importin β complexes by the hydrogel relative to inert molecules in an hour (capillary transport assay, 20 w/v % gel)” value [2] was 3.8 times more than inert molecules and the “accumulated green fluorescence intensity compared to the intensity without importin β, relative to the P-1NLP-P gel” value [2] was ~2 fold of P-1NLP-P gel. The “accumulation of cargo-carrier complexes in the gel relative to MBP-mCherry (no IBB domain) over three hours, 10 w/v % gel” value [2] was 5.2 times more than MBP-mCherry, the “accumulation of cargo-carrier complexes in the gel relative to MBP-mCherry (no IBB domain) over three hours, 20 w/v % gel” value [2] was 10.2 times more than MBP-mCherry and the “accumulation of cargo-carrier complexes relative to MBP-mCherry (without the IBB domain) over an hour, 20 w/v % gel” value [2] was 5.3 times more than MBP-mCherry. The “absorption of cargo-importin β complexes by the hydrogel relative to inert molecules in an hour (capillary transport assay, 20 w/v % gel)” value [3] was 2.3 times more than inert molecules and the “accumulation of cargo-carrier complexes relative to MBP-mCherry (without the IBB domain) over an hour, 20 w/v % gel” value [3] was 3 times more than MBP-mCherry.
